The values below come from patent US20180355338A1.

In test [1] the target is TY-145 protease variant K146A, S173P, S175P, F180Y (Bacillus sp. TY-145). Nature of the test: Ki fitted from Suc-AAPF-pNA activity; Model B detergent; ratio against m3 (without K146A).
Test [2] has as its target TY-145 protease variant S173P, S175P, F180Y, L184W (Bacillus sp. TY-145). In words: Ki fitted from Suc-AAPF-pNA activity; Model B detergent; ratio against m3 (without L184W).
The target in test [3] is TY-145 protease variant S27K, K146P, S148R, A151R, S171N, S173P, G174R, S175P, F180Y, Q198E, N199K, T297P (Bacillus sp. TY-145). Nature of the test: Ki fitted from Suc-AAPF-pNA activity; Model B detergent; ratio against m5 (without A151R).
Test [4] deals with TY-145 protease variant S27K, Q70N, G107N, I121V, E127Q, S173P, S175P, F180Y, L184F, Q198E, T297P (Bacillus sp. TY-145). Nature of the test: Ki fitted from Suc-AAPF-pNA activity; Model B detergent; ratio against m7 (without L184F).
Test [5] addresses TY-145 protease variant S114Q, S173P, S175P, F180Y (Bacillus sp. TY-145). Nature of the test: Ki fitted from Suc-AAPF-pNA activity; Tris buffer pH 8; ratio against m3 (without S114Q).
Test [6] concerns the target TY-145 protease variant G182A (Bacillus sp. TY-145). In words: Ki fitted from Suc-AAPF-pNA activity; Model B detergent; relative to TY145 backbone.
The target of test [7] is TY-145 protease variant Q70F (Bacillus sp. TY-145). Described as above.
Test [8] deals with TY-145 protease variant S173P, S175P, F180Y, L184Y (Bacillus sp. TY-145). Nature of the test: Ki fitted from Suc-AAPF-pNA activity; Model B detergent; ratio against m3 (without L184Y).

Take “Z-Gly-Ala-NHCH(CH2C6H4pOH)C(OH)(SO3Na)-H, wherein Z is benzyloxycarbonyl (peptide)”: the relative Ki mutation turned out to be 0.34 in test [1]; 0.5 in test [2]; 0.75 in test [3]; 0.37 in test [4]; 0.34 in test [5]; 0.24 in test [8]. Further, the values for the IF (binding constant improvement factor, relative Ki) in test [6] and in test [7] were 0.54 and 0.12, respectively.
